From paper PMC10053325
Positions count from the first letter of the chain named.

Key:
[1] = molecular target: T1, His-SMAD4^R361H, Q13485; assay: AlphaScreen or HTRF; details: remark: other sources report otherwise
T1 chain: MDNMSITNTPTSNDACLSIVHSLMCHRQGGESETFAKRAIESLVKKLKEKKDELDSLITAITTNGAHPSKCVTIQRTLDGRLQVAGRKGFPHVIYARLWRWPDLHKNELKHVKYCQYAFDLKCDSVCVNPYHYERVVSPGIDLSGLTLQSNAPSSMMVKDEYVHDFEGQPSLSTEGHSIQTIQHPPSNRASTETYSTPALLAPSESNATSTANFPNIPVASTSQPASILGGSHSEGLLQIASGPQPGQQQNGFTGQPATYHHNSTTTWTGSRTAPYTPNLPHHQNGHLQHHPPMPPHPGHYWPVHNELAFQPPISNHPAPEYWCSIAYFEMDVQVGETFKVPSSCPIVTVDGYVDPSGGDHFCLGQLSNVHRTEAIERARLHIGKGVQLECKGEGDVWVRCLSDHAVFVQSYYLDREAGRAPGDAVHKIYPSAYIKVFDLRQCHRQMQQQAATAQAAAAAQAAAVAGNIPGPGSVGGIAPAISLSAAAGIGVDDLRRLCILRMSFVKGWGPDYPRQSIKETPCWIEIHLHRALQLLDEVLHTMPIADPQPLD

[2] = molecular target: T2, His-SMAD4^WT, Q13485; assay: AlphaScreen or HTRF; details: remark: other sources report otherwise
T2 chain: T1 chain with H361R

B1: Flag-SMAD3, P84022 1-425 (natural protein)
chain: MSSILPFTPPIVKRLLGWKKGEQNGQEEKWCEKAVKSLVKKLKKTGQLDELEKAITTQNVNTKCITIPRSLDGRLQVSHRKGLPHVIYCRLWRWPDLHSHHELRAMELCEFAFNMKKDEVCVNPYHYQRVETPVLPPVLVPRHTEIPAEFPPLDDYSHSIPENTNFPAGIEPQSNIPETPPPGYLSEDGETSDHQMNHSMDAGSPNLSPNPMSPAHNNLDLQPVTYCEPAFWCSISYYELNQRVGETFHASQPSMTVDGFTDPSNSERFCLGLLSNVNRNAAVELTRRHIGRGVRLYYIGGEVFAECLSDSAIFVQSPNCNQRYGWHPATVCKIPPGCNLKIFNNQEFAALLAQSVNQGFEAVYQLTRMCTIRMSFVKGWGAEYRRQTVTSTPCWIELHLNGPLQWLDKVLTQMGSPSIRCSSVS
Work on B1 yielded an EC50 of Go-6983 in enhancing the PPI [1] of 15.2 µM, an EC50 of PKC-412 in enhancing the PPI [1] greater than 100 µM and an EC50 of Ro-31-8220 in enhancing the PPI [1] of 3.9 µM. For the same binder, the EC50 of UCN-1028c in enhancing the PPI [1] was greater than 100 µM, the signal-to-background ratio (TR-FRET) [1] was 10 fold and the signal-to-background ratio (TR-FRET) [2] was 30 fold.
